Reference: patent US20240336686A1 (ELPISCIENCE SUZHOU BIOPHARMA, published 2024)
Read-outs that look alike come from different tables or passages of the source.

Key:
[1] = target: T1, human PDL1 on cells (human, UniProt Q9NZQ7 19-290); assay: cell-based or functional assay
[2] = target: human PDL1 protein (Octet assay) (human, UniProt Q9NZQ7 19-238); assay: Octet; antibody on sensor, PDL1 protein in solution
Method: The Anti-PDL1/SIRPα bispecific protein were characterized for binding affinity against human PDL1 using Octet assay (ForeBio) according to manufacturer's manual, separately. Briefly, the antibodies were coupled on sensors and then the sensors were dipped into PDL1 protein gradients (start at 200 nM, with 2-fold dilution and totally 8 doses). Their binding responses were measured in real-time and results were fit globally.

[3] = target: T1, human PDL1 on cells; assay: FACS, Raji cells overexpressing human PDL1, anti-human Fc-PE, MFI
Method: Approximately 100,000 Raji cells overexpressing human PDL1 were washed with wash buffer and incubated with 100 ul serial dilution of PDL1/SIRPα bispecific protein for 30 minutes on ice. Cells were then washed twice with wash buffer and incubated with 100 ul of anti-human Fc-PE for 30 minutes on ice. Cells were then washed twice with wash buffer and analyzed on a FACS Canto II analyzer (BD Biosciences). […] The bispecific antibodies ES019-025, ES019-026 bound Raji/hPDL1 similar to anti-PDL1 monoclonal antibody C71 whereas ES019-020, ES019-024 bound Raji/hPDL1 to a lesser extent relative to anti-PDL1, C71.

[4] = target: T2, mFc tagged human SIRPα v1 ECD recombinant protein (human, UniProt P78324 31-373); assay: competitive ELISA; row antibody in excess in solution, coated mAb 025c
T2 construct: extracellular domain; not shown: mouse Fc tag
Method: (§1) Competitive ELISA assay was used for epitope binning of purified chimeric antibodies. Briefly excessive competitor antibody and mFc tagged human SIRPα v1 ECD recombinant protein were co-incubated with ELISA microplate coated antibody. After washing, HRP labeled anti-mouse Fc 2nd antibody (Sigma) was added and incubated at 37° C. for 1 hour. Then, 100 μl/well of TMB solution (Biotechnology) was added. After incubation for 15 minutes at room temperature, the reaction was stopped by the addition of 50 μl of 1N HCl. OD 450 nm was read. Competition ratio was calculated. The antibodies that can compete each other for binding to SIRPα may have related binding epitopes.

[5] = target: T2, mFc tagged human SIRPα v1 ECD …; assay: competitive ELISA; row antibody in excess in solution, coated mAb 042c
Method: as §1

[6] = target: T2, mFc tagged human SIRPα v1 ECD …; assay: competitive ELISA; row antibody in excess in solution, coated mAb hu1H9G4
Method: as §1

[7] = target: T3, Full length human SIRPα v1 with beta-gal fragment (ED) at its C-terminal, in K562 cells (human, UniProt P78324 31-504); assay: cell-based or functional assay
[8] = target: T4, human SIRPα v1 on CHOK1 cells (human, UniProt P78324 31-504); assay: FACS, CHOK1 cells stably expressing human SIRPα v1
T4 construct: whole, on cells; also called CHOK1-hSIRPα v1; cell surface human SIRPα v1
Source text: (§2) Binding activity of the purified chimeric antibodies against human SIRPα variants was detected by FACS assay using CHOK1 cells or 293F cells stably expressing human SIRPα v1 and CHOK1 cells stably expressing human SIRPα v2. […] EC₅₀ and top signal calculated using GraphPad Prism9.0.

[9] = target: T5, human SIRPα v2 on CHOK1 cells (human, UniProt P78324 31-504); assay: FACS, CHOK1 cells stably expressing human SIRPα v2
T5 construct: whole, on cells; also called CHOK1-hSIRPα v2; cell surface human SIRPα v2
Source text: as §2

[10] = target: T6, human SIRPα v1 ECD recombinant protein (human, UniProt P78324 31-373); assay: competitive ELISA, plate-coated human SIRPα v1 ECD; blocked ligand: mFc tagged human CD47 ECD
T6 construct: extracellular domain; Coated on the ELISA plate
Method: (§3) Competitive ELISA assay was used to determine whether the purified chimeric antibodies can block CD47 and SIRPα interaction. Briefly, antibody and mFc tagged human CD47 ECD recombinant protein were co-incubated with ELISA microplate coated human SIRPα v1 ECD or human SIRPα v2 ECD recombinant protein. The concentration of soluble ECD of CD47 is 25 nM, and the concentration of soluble ECD of SIRPα is 20 nM. After washing, HRP labeled anti-mouse Fc 2nd antibody (Sigma) was added and incubated at 37° C. for 1 hour. Then, 100 μl/well of TMB solution (Biotechnology) was added. After incubation for 15 minutes at room temperature, the reaction was stopped by the addition of 50 μl of 1N HCl. OD 450 nm was read. Blocking ratio was determined by blockade of human SIRPα ECD recombinant protein binding to ELISA microplate coated human CD47 ECD recombinant protein. All antibodies as tested can block interaction between human CD47 and different human SIRPα variants.

[11] = target: T7, human SIRPα v2 ECD recombinant protein (human); assay: competitive ELISA, plate-coated human SIRPα v2 ECD; blocked ligand: mFc tagged human CD47 ECD
T7 construct: extracellular domain; Coated on the ELISA plate
Method: as §3

[12] = target: T3, Full length human SIRPα v1 with …; assay: cell-based or functional assay; remark: listed apart in the source
[13] = target: T8, Human SIRPα v2 (human); assay: SPR (Biacore), 1:1 binding model
T8 construct: also called human SIRPα v2 (antigen of the Biacore assay)
Method: The humanized antibodies were characterized for binding affinity against human SIRPα v1, human SIRPα v2 using Surface Plasmon Resonance technology (Biacore system). The association and dissociation curves were fit with 1:1 binding model, and the Ka/Kd/KD values for each antibody were calculated.

[14] = target: T4, human SIRPα v1 on CHOK1 cells; assay: FACS, CHOK1 cells stably expressing human SIRPα v1; remark: listed apart in the source
[15] = target: T5, human SIRPα v2 on CHOK1 cells; assay: FACS, CHOK1 cells stably expressing human SIRPα v2; remark: listed apart in the source
[16] = target: T6, human SIRPα v1 ECD recombinant protein; assay: competitive ELISA, plate-coated human SIRPα v1 ECD; blocked ligand: mFc tagged human CD47 ECD; remark: listed apart in the source
Method: as §3
(§4) The humanized antibodies were tested for the ability to block CD47 and SIRPα interaction with competitive ELISA assay (refer to methods described above).

[17] = target: T7, human SIRPα v2 ECD recombinant protein; assay: competitive ELISA, plate-coated human SIRPα v2 ECD; blocked ligand: mFc tagged human CD47 ECD; remark: listed apart in the source
Method: as §3, §4

[18] = target: T4, human SIRPα v1 on CHOK1 cells; assay: competitive FACS, CHOK1 cells stably expressing human SIRPα v1; blocked ligand: mFc tagged human CD47 ECD
Method: (§5) Competitive FACS assay was also set up to further compare the blocking activity of the humanized antibodies and some known anti-SIRPα antibodies. Briefly antibody and mFc tagged human CD47 ECD recombinant protein were co-incubated with CHOK1 cells stably expressing human SIRPα v1 or human SIRPα v2. After washing, dye labeled anti-mouse Fc 2nd antibody (Sigma) was added and incubated at 37° C. for 1 hour. Fluorescence intensity was detected. Blocking ratio was determined by blockade of human CD47 ECD recombinant protein binding to SIRPα expressed CHOK1 cells.

[19] = target: T5, human SIRPα v2 on CHOK1 cells; assay: competitive FACS, CHOK1 cells stably expressing human SIRPα v2; blocked ligand: mFc tagged human CD47 ECD
Method: as §5

T6 sequence (P78324 31-373): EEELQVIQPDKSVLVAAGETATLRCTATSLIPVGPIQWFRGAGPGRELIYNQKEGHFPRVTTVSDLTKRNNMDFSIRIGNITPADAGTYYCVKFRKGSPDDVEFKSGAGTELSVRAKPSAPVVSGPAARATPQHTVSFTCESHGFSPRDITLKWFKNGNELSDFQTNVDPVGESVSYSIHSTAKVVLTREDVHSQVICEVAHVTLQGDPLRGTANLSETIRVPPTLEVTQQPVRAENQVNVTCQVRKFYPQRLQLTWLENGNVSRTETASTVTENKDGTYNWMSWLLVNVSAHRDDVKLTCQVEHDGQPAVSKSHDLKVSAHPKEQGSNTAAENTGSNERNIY
T2 sequence (P78324 31-373): as above
T5 sequence (P78324 other isoform, or with tags, fused parts or gaps limits assumed): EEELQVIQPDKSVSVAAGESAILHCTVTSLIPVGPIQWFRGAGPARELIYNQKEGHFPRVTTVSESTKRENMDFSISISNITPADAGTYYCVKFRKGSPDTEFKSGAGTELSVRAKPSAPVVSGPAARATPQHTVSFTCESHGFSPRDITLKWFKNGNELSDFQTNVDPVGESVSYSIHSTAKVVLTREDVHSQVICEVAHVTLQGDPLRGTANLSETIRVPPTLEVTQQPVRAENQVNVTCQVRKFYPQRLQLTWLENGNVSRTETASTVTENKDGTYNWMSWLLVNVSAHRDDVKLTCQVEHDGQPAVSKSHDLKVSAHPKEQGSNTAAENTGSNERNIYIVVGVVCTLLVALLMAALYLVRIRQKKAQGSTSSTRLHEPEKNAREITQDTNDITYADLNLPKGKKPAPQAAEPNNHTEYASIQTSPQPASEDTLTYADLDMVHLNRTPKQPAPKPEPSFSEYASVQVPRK
T3 sequence (P78324 31-504): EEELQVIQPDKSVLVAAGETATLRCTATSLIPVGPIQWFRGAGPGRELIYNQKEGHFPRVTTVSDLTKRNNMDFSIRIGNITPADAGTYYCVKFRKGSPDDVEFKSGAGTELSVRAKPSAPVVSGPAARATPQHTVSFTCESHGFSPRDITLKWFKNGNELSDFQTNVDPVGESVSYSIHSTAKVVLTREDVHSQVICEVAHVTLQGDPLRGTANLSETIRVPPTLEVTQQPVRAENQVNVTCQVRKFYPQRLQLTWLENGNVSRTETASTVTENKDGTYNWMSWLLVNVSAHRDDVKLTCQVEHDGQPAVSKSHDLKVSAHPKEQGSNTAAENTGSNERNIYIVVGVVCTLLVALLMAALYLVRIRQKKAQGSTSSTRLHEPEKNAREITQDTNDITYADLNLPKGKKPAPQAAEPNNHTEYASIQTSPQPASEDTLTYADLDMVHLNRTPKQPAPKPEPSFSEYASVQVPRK
T4 sequence (P78324 31-504): as above
Sequence of human PDL1 protein (Octet assay) (Q9NZQ7 19-238 limits assumed): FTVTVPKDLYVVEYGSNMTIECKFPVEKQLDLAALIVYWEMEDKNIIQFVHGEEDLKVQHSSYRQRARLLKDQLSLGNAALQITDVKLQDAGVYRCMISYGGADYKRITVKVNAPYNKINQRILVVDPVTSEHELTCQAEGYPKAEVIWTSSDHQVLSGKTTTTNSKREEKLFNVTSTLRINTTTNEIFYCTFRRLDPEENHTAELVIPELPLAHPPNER
T1 sequence (Q9NZQ7 19-290): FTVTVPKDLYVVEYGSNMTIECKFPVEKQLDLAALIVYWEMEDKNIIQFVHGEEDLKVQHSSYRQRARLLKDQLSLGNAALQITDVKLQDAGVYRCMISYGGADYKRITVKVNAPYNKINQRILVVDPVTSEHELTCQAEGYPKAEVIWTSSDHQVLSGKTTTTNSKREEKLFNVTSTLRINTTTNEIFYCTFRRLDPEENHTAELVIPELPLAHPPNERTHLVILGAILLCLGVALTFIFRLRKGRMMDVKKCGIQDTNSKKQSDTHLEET

EC50 (read off the curve) [1] [nM]	Kd [2] [nM]	koff [2] [s⁻¹]	kon [2] [M⁻¹ s⁻¹]	% Competition [4] [%]	% Competition [5] [%]	% Competition [6] [%]	IC50 (SHP-1 recruitment blocking) [7] [nM]	TOP blocking (SHP-1 recruitment) [7] [%]	EC50 [8] [nM]	TOP MFI [8] [MFI]	EC50 [9] [nM]	TOP MFI [9] [MFI]	IC50 [10] [nM]	TOP blocking [10] [%]	IC50 [11] [nM]	TOP blocking [11] [%]	Binder	also measured
~2	5.31	0.00501	942000	–	–	–	–	–	–	–	–	–	–	–	–	–	Anti-PDL1 antibody C71 (antibody, V domains shown, Heavy chain antibody (single domain variable region); also called Anti-PDL1, C71) VH: EVQVVESGGGLVQSGGSLKLSCAGSGFTESAGFMVWHRQVPGKERELVALIATPSGSTNYADSVKGRFTISRDNGKNTVYLQMNSLKPEDTAVYYCNIRGYWGQGTLVTVSS	EC50 (read off the curve) [3]: ~0.2 nM
~1	4.1	0.00639	1.56e+06	–	–	–	–	–	–	–	–	–	–	–	–	–	Anti-PDL1/SIRPα bispecific antibody ES019-026 (bispecific antibody, not shown: small tags and cut ends; a dimerising Fc or GST) light (part 1 of 2): EVQVVESGGGLVQSGGSLKLSCAGSGFTESAGFMVWHRQVPGKERELVALIATPSGSTNYADSVKGRFTISRDNGKNTVYLQMNSLKPEDTAVYYCNIRGYWGQGTLVTVSS light (part 2 of 2): QIVLTQSPAIMSASPGEKVTLTCSASSSVSSSYLYWYQQKPGSSPKLWIYSTSNLASGVPARFSGSGSGTSYSLTISSMEAEDAASYFCHQWSSYPYTFGGGTKLEIK heavy: EVQLQQSGAELVKPGASVKLSCTASGFNIKDYYMHWVKQRTEQGLEWIGRIDPEDGETKYAPKFQGKATITADTSSNTAYLQLSSLTSEDTAVYYCDRGLAYWGQGTLVTVSA	–
–	–	–	–	14.5	82.6	90.5	–	–	–	–	–	–	–	–	–	–	Reference anti-SIRPα antibody hu1H9G4 (antibody, human IgG4, V domains shown) VH: QVQLVQSGAEVKKPGASVKVSCKASGYTFTSYWITWVKQAPGQGLEWIGDIYPGSGSTNHIEKFKSKATLTVDTSISTAYMELSRLRSDDTAVYYCATGYGSSYGYFDYWGQGTLVTVSS VL: DIQMTQSPSSLSASVGDRVTITCRASENIYSYLAWYQQKPGKAPKLLIYTAKTLAEGVPSRFSGSGSGTDFTLTISSLQPEDFATYYCQHQYGPPFTFGQGTKLELK	–
–	–	–	–	8.9	93.9	29.8	0.99	70	1.9	73200	4.21	54800	3.6	97.1	4.49	94.6	Anti-SIRPα antibody C42 (antibody, human IgG4, V domains shown, Mouse variable regions; also called 042c) VH: QIQLVQSGPELKKPGETVKISCRASGYTFTTYGMSWVKQAPGKGLRWMGWINTYSGVSTCADDFKGRFAFSLETSATTAYLQIHNLTNEDTATYFCARDPHSYGNSPAWFPYWGQGTLVTVSA VL: DIVMTQSQKFMSTTIRDRVSITCKASQNVGISVAWYQQKSGQSPKLLIYSASNRYTGVPDRFTGSGSGTDFTLTISNMQSEDLADYFCQQYSSYPLTFGSGTKLAIK	–
–	–	–	–	9.1	93.6	37.7	5.66	51.2	1.5	67800	2.12	47300	2.74	95.1	4.92	82.8	Anti-SIRPα antibody C73 (antibody, human IgG4, V domains shown, Mouse variable regions; also called 073c; 073C) VH: QIQLVQSGPELKKPGETVKISCKASGYTFTTYGMSWVKQAPGKGLKWMVWINTYSGVPTYADDFKGRFAFSLETSASTSYLQINNLKNEDTATYFCARDPHYYGSSPAWFVYWGQGTLVTVSA VL: DIVMTQSQKFMSTTIGDRVSITCEASQIVGIAVAWYQQKPGQSPKLLIYSASNRYTGVPDRFTGSGSGTDFTLTISNMQSEDLANYFCQQYSAYPFTFGSGTKLEVK	–
–	–	–	–	–	–	–	–	–	–	–	–	–	–	–	–	–	Humanized anti-SIRPα antibody hu025.060 (antibody, V domains shown, Humanized from C25) VH: EVQLVQSGAEVKKPGATVKISCKASGFNIKDYYMHWVQQAPGKGLEWIGRIDPEDAETKYAPKFQGRVTITADTSTNTAYMELSSLRSEDTAVYYCDRGLAYWGQGTLVTVSS VL: EIVLTQSPATLSLSPGERATLSCSASSSVSSSYLYWYQQKPGQAPKLWIYSTSNLASGIPARFSGSGSGTDFTLTISSLEPEDFAVYYCHQWSSYPYTFGQGTKLEIK	IC50 (SHP-1 recruitment blocking) [12]: 0.09 nM; TOP blocking (SHP-1 recruitment) [12]: 87.5%; Kd [13]: 2.34 nM; koff [13]: 0.00344 s⁻¹; kon [13]: 1.47e+06 M⁻¹ s⁻¹; EC50 [14]: 0.84 nM; TOP MFI [14]: 61500 MFI; EC50 [15]: 0.8 nM; TOP MFI [15]: 48800 MFI; IC50 [16]: 2.15 nM; TOP blocking [16]: 95.2%; IC50 [17]: 1.88 nM; TOP blocking [17]: 97%; IC50 [18]: 0.53 nM; TOP blocking [18]: 98.7%; IC50 [19]: 0.77 nM; TOP blocking [19]: 99.8%
